Laboratory results as given in the Immune Epitope Database (IEDB).

Tests used:
HLA-A*30:01 = assay: IEDB peptide-MHC binding, purified MHC/competitive/radioactivity; filed as Kd, often an IC50 or EC50 that approximates it; ≥ and ≤ were set here for values at or beyond the usual limits of such assays
HLA-A*01:01 [1] = assay: as above
HLA-A*02:01 [2] = assay: IEDB peptide-MHC binding, purified MHC/competitive/fluorescence; ≥ and ≤ were set here for values at or beyond the usual limits of such assays
HLA-A*23:01 = assay: IEDB peptide-MHC binding, purified MHC/competitive/radioactivity; filed as Kd, often an IC50 or EC50 that approximates it; ≥ and ≤ were set here for values at or beyond the usual limits of such assays
HLA-A*24:02 = assay: as above
HLA-A*29:02 = assay: as above
HLA-A*02:01 [3] = assay: IEDB peptide-MHC binding, purified MHC/competitive/fluorescence; filed as Kd, often an IC50 or EC50 that approximates it; ≥ and ≤ were set here for values at or beyond the usual limits of such assays
HLA-A*30:02 = assay: IEDB peptide-MHC binding, purified MHC/competitive/radioactivity; filed as Kd, often an IC50 or EC50 that approximates it; ≥ and ≤ were set here for values at or beyond the usual limits of such assays
HLA-A*03:01 [4] = assay: IEDB peptide-MHC binding, purified MHC/direct/fluorescence; filed as Kd, often an IC50 or EC50 that approximates it; ≥ and ≤ were set here for values at or beyond the usual limits of such assays
HLA-A*31:01 [5] = assay: as above; details: source organism: Escherichia coli
HLA-A*03:01 [6] = assay: IEDB peptide-MHC binding, purified MHC/competitive/radioactivity; filed as Kd, often an IC50 or EC50 that approximates it; ≥ and ≤ were set here for values at or beyond the usual limits of such assays
HLA-A*11:01 [7] = assay: as above
HLA-A*31:01 [8] = assay: as above; details: source organism: Vaccinia virus WR
HLA-A*33:01 = assay: as above; details: source organism: Vaccinia virus WR
HLA-A*68:01 = assay: as above; details: source organism: Vaccinia virus WR
HLA-B*58:01 = assay: IEDB peptide-MHC binding, purified MHC/direct/fluorescence; filed as Kd, often an IC50 or EC50 that approximates it; ≥ and ≤ were set here for values at or beyond the usual limits of such assays
HLA-A*01:01 [9] = assay: as above; details: source organism: SARS-CoV1
HLA-A*11:01 [10] = assay: as above; details: source organism: SARS-CoV1
HLA-A*26:01 = assay: IEDB peptide-MHC binding, purified MHC/competitive/radioactivity; filed as Kd, often an IC50 or EC50 that approximates it; ≥ and ≤ were set here for values at or beyond the usual limits of such assays; details: source organism: SARS coronavirus Tor2
HLA-A*02:01 [11] = assay: IEDB peptide-MHC binding, purified MHC/direct/fluorescence; filed as Kd, often an IC50 or EC50 that approximates it; ≥ and ≤ were set here for values at or beyond the usual limits of such assays
HLA-A*69:01 = assay: as above
HLA-B*15:01 = assay: as above; details: source organism: SARS-CoV1
[12] = source organism: Vaccinia virus WR
[13] = source organism: Dengue virus 1 Brazil/97-11/1997
[14] = source organism: Sudan ebolavirus
[15] = source organism: Dengue virus 4 Philippines/H241/1956
[16] = source organism: Mammarenavirus brazilense
[17] = source organism: Vaccinia virus
[18] = source organism: Dengue virus 2 Jamaica/1409/1983
[19] = source organism: Lymphocytic choriomeningitis virus (strain Armstrong)
[20] = source organism: Dengue virus 4 Thailand/0348/1991
[21] = source organism: Zaire ebolavirus
[22] = source organism: SARS coronavirus Tor2
[23] = source organism: Escherichia coli O157:H7
[24] = source organism: Dengue virus 3 Martinique/1243/1999

Question: LTRYALHGK was tested. Which Kd (HLA-A*30:01; [12]) did it give?
Answer: Its Kd is 0.000252 µM.

Question: Which Kd (HLA-A*01:01 [1]; [13]) does the source give for LTSREVLLL here?
Answer: The Kd was 0.288 µM.

Question: For LTTPENITT, which IC50 (HLA-A*02:01 [2]; [14]) is on record?
Answer: Its IC50 is ≥ 157 µM.

Question: Which results are given for LYPLAIPVTM?
Answer: Kd (HLA-A*23:01; [15]): 0.336 µM; Kd (HLA-A*24:02; [15]): 1.51 µM

Question: What does the source list for LYTVKFPNLI?
Answer: Kd (HLA-A*23:01; [16]): 0.538 µM; Kd (HLA-A*24:02; [16]): 0.605 µM; Kd (HLA-A*29:02; [16]): ≥ 54.7 µM

Question: For MFGGVSWMV, which Kd (HLA-A*23:01; [15]) is on record?
Answer: Its Kd is 8.79 µM.

Question: How did the Kd (HLA-A*02:01 [3]; [17]) turn out when MLAESCDSV was run?
Answer: The Kd was 0.0011 µM.

Question: For MPQMKKILK, which Kd (HLA-A*02:01 [3]; [12]) is on record?
Answer: Its Kd is 2.01 µM.

Question: MRSRWSRKML was tested. Which Kd (HLA-A*30:01; [13]) did it give?
Answer: The Kd was 0.175 µM.

Question: MTRLPILLL was tested. Which Kd (HLA-A*30:01; [12]) did it give?
Answer: Its Kd is 0.000646 µM.

Question: How did the Kd (HLA-A*23:01; [18]) turn out when NSLEVEDYGF was run?
Answer: Its Kd is 5.43 µM.

Question: For NVLDEKYNT, which IC50 (HLA-A*02:01 [2]; [17]) is on record?
Answer: Its IC50 is ≥ 319 µM.

Question: Which results are given for PMMCPFLFL?
Answer: Kd (HLA-A*23:01; [19]): 0.22 µM; Kd (HLA-A*24:02; [19]): 0.484 µM; Kd (HLA-A*29:02; [19]): 0.208 µM

Question: What does the source list for RGWGNGCGLF?
Answer: Kd (HLA-A*23:01; [20]): 0.898 µM; Kd (HLA-A*30:02; [20]): 0.0154 µM

Question: Which Kd (HLA-A*02:01 [3]; source organism: Human alphaherpesvirus 1 strain 17) does the source give for RIQQYMFFM here?
Answer: The Kd was 0.081 µM.

Question: For RNRVSTPQG, which Kd (HLA-A*30:01; [15]) is on record?
Answer: Its Kd is 0.132 µM.

Question: With RRNNRVFFR as the sequence, how does the Kd (HLA-A*03:01 [4]; source organism: Escherichia coli) read?
Answer: Its Kd is ≥ 20 µM.

Question: What about the Kd (HLA-A*31:01 [5]) of the same sequence?
Answer: Its Kd is 0.0177 µM.

Question: RSQGPFDAV was tested. Which IC50 (HLA-A*02:01 [2]; [21]) did it give?
Answer: Its IC50 is ≥ 163 µM.

Question: What does the source list for RSTPFNMLK?
Answer: Kd (HLA-A*03:01 [6]; [18]): 0.00805 µM; Kd (HLA-A*11:01 [7]; [18]): 0.0141 µM; Kd (HLA-A*30:01; [18]): 0.0204 µM

Question: RTRAINKYS was tested. Which Kd (HLA-A*30:01; [12]) did it give?
Answer: Its Kd is 0.0127 µM.

Question: With RVLFSIFYK as the sequence, how does the Kd (HLA-A*03:01 [6]; [12]) read?
Answer: The Kd was 0.00535 µM.

Question: And the Kd (HLA-A*11:01 [7]; [12])?
Answer: The Kd was 0.0532 µM.

Question: What about the Kd (HLA-A*30:01; [12]) of the same sequence?
Answer: The Kd was 0.118 µM.

Question: And the Kd (HLA-A*31:01 [8])?
Answer: The Kd was 0.000861 µM.

Question: What about the Kd (HLA-A*33:01) of the same sequence?
Answer: Its Kd is 1.86 µM.

Question: What about the Kd (HLA-A*68:01) of the same sequence?
Answer: Its Kd is 0.12 µM.

Question: With RVLSIPPTA as the sequence, how does the Kd (HLA-A*30:01; [15]) read?
Answer: The Kd was 0.118 µM.

Question: SFFLWVIIL was tested. Which IC50 (HLA-A*02:01 [2]; [21]) did it give?
Answer: Its IC50 is 14.6 µM.

Question: What does the source list for SFYADPKRFF?
Answer: Kd (HLA-A*23:01; [19]): 0.126 µM; Kd (HLA-A*24:02; [19]): 0.709 µM; Kd (HLA-A*29:02; [19]): 0.0444 µM

Question: How did the IC50 (HLA-A*02:01 [2]; [21]) turn out when SSTNQLRSV was run?
Answer: Its IC50 is 48.2 µM.

Question: With STAIELGAW as the sequence, how does the Kd (HLA-B*58:01; source organism: Mammarenavirus lassaense) read?
Answer: Its Kd is 0.0133 µM.

Question: What does the source list for SWLVHKQWFL?
Answer: Kd (HLA-A*23:01; [13]): 0.173 µM; Kd (HLA-A*24:02; [13]): 2.7 µM

Question: What does the source list for TCDGNTFTY?
Answer: Kd (HLA-A*01:01 [9]): 0.531 µM; Kd (HLA-A*11:01 [10]): 2.48 µM; Kd (HLA-A*23:01; [22]): ≥ 77.8 µM; Kd (HLA-A*24:02; [22]): ≥ 23.9 µM; Kd (HLA-A*26:01): ≥ 38.6 µM; Kd (HLA-A*29:02; [22]): 0.00685 µM; Kd (HLA-A*30:02; [22]): 0.107 µM

Question: Which IC50 (HLA-A*02:01 [2]; [21]) does the source give for TEAEKQLQQ here?
Answer: The IC50 was ≥ 338 µM.

Question: For TEQAFYTRV, which IC50 (HLA-A*02:01 [2]; [12]) is on record?
Answer: The IC50 was ≥ 98.4 µM.

Question: For TGILGSLGL, which IC50 (HLA-A*02:01 [2]; [14]) is on record?
Answer: Its IC50 is ≥ 92.7 µM.

Question: With TGPCPGDYA as the sequence, how does the IC50 (HLA-A*02:01 [2]; [14]) read?
Answer: Its IC50 is 34.9 µM.

Question: With TLLQAAPTL as the sequence, how does the IC50 (HLA-A*02:01 [2]; source organism: Mycobacterium tuberculosis) read?
Answer: Its IC50 is 0.05 µM.

Question: TLVPQEHYV was tested. Which Kd (HLA-A*02:01 [11]; source organism: SARS-CoV1) did it give?
Answer: The Kd was 0.119 µM.

Question: And the Kd (HLA-A*11:01 [10])?
Answer: Its Kd is ≥ 43.2 µM.

Question: And the Kd (HLA-A*69:01; source organism: SARS-CoV1)?
Answer: The Kd was 0.0795 µM.

Question: How did the IC50 (HLA-A*02:01 [2]; [17]) turn out when TNLEYKTLC was run?
Answer: Its IC50 is ≥ 773 µM.

Question: Which Kd (HLA-A*01:01 [9]) does the source give for TSNPKTPKY here?
Answer: Its Kd is 4.51 µM.

Question: What about the Kd (HLA-A*03:01 [4]; source organism: SARS-CoV1) of the same sequence?
Answer: Its Kd is 1.23 µM.

Question: What about the Kd (HLA-A*11:01 [10]) of the same sequence?
Answer: Its Kd is 14.3 µM.

Question: What about the Kd (HLA-B*15:01) of the same sequence?
Answer: The Kd was 0.393 µM.

Question: What about the Kd (HLA-B*58:01; source organism: SARS-CoV1) of the same sequence?
Answer: The Kd was 0.212 µM.

Question: And the Kd (HLA-A*23:01; [22])?
Answer: The Kd was ≥ 77.8 µM.

Question: What about the Kd (HLA-A*24:02; [22]) of the same sequence?
Answer: The Kd was ≥ 77.6 µM.

Question: And the Kd (HLA-A*26:01)?
Answer: Its Kd is ≥ 56.4 µM.

Question: What about the Kd (HLA-A*29:02; [22]) of the same sequence?
Answer: The Kd was 0.549 µM.

Question: And the Kd (HLA-A*30:02; [22])?
Answer: The Kd was 0.000228 µM.

Question: Which IC50 (HLA-A*02:01 [2]; [14]) does the source give for TTPENITTA here?
Answer: Its IC50 is 19 µM.

Question: What does the source list for VLFIHPLDA?
Answer: Kd (HLA-A*02:01 [11]; [23]): 0.0649 µM; Kd (HLA-A*69:01; [23]): ≥ 20 µM

Question: VLFRLENHA was tested. Which Kd (HLA-A*02:01 [3]; source organism: Vaccinia virus WR 65-16) did it give?
Answer: The Kd was 0.0565 µM.

Question: What does the source list for VLPEEQDQNY?
Answer: Kd (HLA-A*01:01 [1]; [24]): 11 µM; Kd (HLA-A*30:02; [24]): 6.87 µM

Question: With VLTLATGPVL as the sequence, how does the Kd (HLA-A*30:01; [15]) read?
Answer: Its Kd is 1.5 µM.

Question: For VVLTGGTGV, which IC50 (HLA-A*02:01 [2]; source organism: Variola virus) is on record?
Answer: The IC50 was 3.8 µM.

Question: Which Kd (HLA-A*01:01 [1]; [13]) does the source give for WTEQYKFQA here?
Answer: The Kd was ≥ 20.2 µM.

Question: YSDRRWCFD was tested. Which Kd (HLA-A*01:01 [1]; [13]) did it give?
Answer: Its Kd is 1.07 µM.
